The values below come from patent US20260139065A1 (Novartis, published 2026).

For orientation: Kd means a measure of binding affinity in units of concentration. The low end stands for tighter binding, the high end for weaker binding.

The assay addresses T1, BAFF-R (B-cell activating factor receptor) (human, UniProt Q96RJ3 1-78, limits assumed).
T1 construct: also called BAFF receptor; BR3
T1 sequence (looked up): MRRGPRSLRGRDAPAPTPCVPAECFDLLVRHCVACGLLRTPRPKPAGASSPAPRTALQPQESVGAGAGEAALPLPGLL
Description: in vitro experiments (method not given); used as a parameter of the tissue receptor occupancy model.

B1: ianalumab (antibody, human IgG1, kappa, V domains shown)
VH: QVQLQQSGPGLVKPSQTLSLTCAISGDSVSSNSAAWGWIRQSPGRGLEWLGRIYYRSKWYNSYAVSVKSRITINPDTSKNQFSLQLNSVTPEDTAVYYCARYDWVPKIGVFDSWGQGTLVTVSS
VL: DIVLTQSPATLSLSPGERATLSCRASQFISSSYLSWYQQKPGQAPRLLIYGSSSRATGVPARFSGSGSGTDFTLTISSLEPEDFAVYYCQQLYSSPMTFGQGTKVEIKR
notes: also called VAY736; anti-BAFF-R antibody
On to B1, for which the dissociation constant (Kd) was found to be 0.046 nM.
